Tests used:
[1] = target: phenylalanyl-glycyl-phenylalanyl-hydroxylglycine
[2] = target: phenylalanyl-glycyl-phenylalanyl-glycine

Substance | Enzyme activity n mole/h/ml medium, PheGlyPhehydroxyGly to PheGlyPhe-NH2 + glyoxylic acid (n mole/h/ml medium) [1] | Enzyme activity n mole/h/ml medium, PheGlyPheGly to PheGlyPhehydroxyGly (n mole/h/ml medium) [2]
Enzyme expressed from plasmid SV-203 (Signal sequence + N-terminal domain + C-terminal domain) in COS-7 cells (from UniProt P14925) | 4.2 | 2.5
Enzyme expressed from plasmid SV-a (Signal sequence + N-terminal domain) in COS-7 cells (from UniProt P14925) | < 2 | 2.8
Enzyme expressed from plasmid SV-b (Signal sequence + C-terminal domain) in COS-7 cells (from UniProt P14925) | 10.8 | 0.4

Source: patent publication US5871995
